Each block holds one binder with its values, some of them ahead of it.
Tests used:
[1] = molecular target: T1, Flag tagged recombinant DLL3 (Adipogen) (Homo sapiens (Human), UniProt Q9NYJ7 27-492); test: flow cytometry, percent of T cells that recognise recombinant DLL3, Donor 503
T1 construct: Bought reagent; also called Flag-DLL3
T1 sequence: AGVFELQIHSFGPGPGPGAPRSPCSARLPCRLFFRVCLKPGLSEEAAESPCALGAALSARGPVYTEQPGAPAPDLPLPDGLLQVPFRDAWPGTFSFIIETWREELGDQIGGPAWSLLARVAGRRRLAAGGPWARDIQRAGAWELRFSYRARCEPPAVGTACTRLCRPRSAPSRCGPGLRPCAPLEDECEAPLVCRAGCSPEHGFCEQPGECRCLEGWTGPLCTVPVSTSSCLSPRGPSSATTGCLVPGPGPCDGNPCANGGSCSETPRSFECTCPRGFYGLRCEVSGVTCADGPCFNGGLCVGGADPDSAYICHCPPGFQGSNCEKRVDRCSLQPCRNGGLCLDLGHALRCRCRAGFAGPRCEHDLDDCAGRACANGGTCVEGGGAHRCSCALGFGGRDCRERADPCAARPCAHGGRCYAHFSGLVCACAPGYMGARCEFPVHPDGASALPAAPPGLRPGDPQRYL
Description: (§1) To determine the percentage of T cells that were successfully transduced with DLL3 CAR, T cells were first incubated with 1 ug/ml Flag tagged recombinant DLL3 (Adipogen) in PBS+1% BSA for 20 minutes at 4 C.

[2] = molecular target: T1, Flag tagged recombinant DLL3 (Adipogen); test: flow cytometry, percent of T cells that recognise recombinant DLL3, Donor 419
Description: as §1

Transduction efficiency [1]: 3.18% | Transduction efficiency [2]: 2.35%
B1: 4E1 (other)
CAR: QVQLQQSGPGLVKPSQTLSLTCAISGDNVSTNSAAWNWIRQSPSRGLEWLGWTYYRSKWYNDYAVSLKSRININPDTSKNQFSLQLNSVTPEDTAVYYCARWVNRDVFDIWGQGTMVTVSSGGGGSGGGGSGGGGSGGGGSQSALTQPASVSGSPGQSITISCTGTSSDVGSYNLVSWYQQHPGKAPKLMIYEGSKRPSGVSNRFSGSKSGNTASLTISGLQAEDEADYYCCSYAGSSTWVFGGGTKLTVLTTTPAPRPPTPAPTIASQPLSLRPEACRPAAGGAVHTRGLDFACDIYIWAPLAGTCGVLLLSLVITKRGRKKLLYIFKQPFMRPVQTTQEEDGCSCRFPEEEEGGCELRVKFSRSADAPAYQQGQNQLYNELNLGRREEYDVLDKRRGRDPEMGGKPRRKNPQEGLYNELQKDKMAEAYSEIGMKGERRRGKGHDGLYQGLSTATKDTYDALHMQALPPR
notes: also called anti-DLL3 CAR with 4E1 scFv, on primary T cells

Transduction efficiency [1]: 67.6% | Transduction efficiency [2]: 58.5%
B2: 10A2 (other)
CAR: QVQLQQSGPGLVKPSETLSLTCAISGDSVSSNSATWNWIRQSPSRGLEWLGRTYYRSEWYNDYAVSVKSRITINPDTSKNHLSLHLNSVTPEDTAVYYCAGGGIVGAPDGFDVWGQGTMVTVSSGGGGSGGGGSGGGGSGGGGSQSVLTQPPSASGTPGQRVTISCSGSSSNIGSDPVIWYQQLPRTAPKLLIYSNNQRPSGVPDRFSGSKSGTSASLAISGLQSEDEADYYCAAWDDSLNGYVFGTGTKVTVLTTTPAPRPPTPAPTIASQPLSLRPEACRPAAGGAVHTRGLDFACDIYIWAPLAGTCGVLLLSLVITKRGRKKLLYIFKQPFMRPVQTTQEEDGCSCRFPEEEEGGCELRVKFSRSADAPAYQQGQNQLYNELNLGRREEYDVLDKRRGRDPEMGGKPRRKNPQEGLYNELQKDKMAEAYSEIGMKGERRRGKGHDGLYQGLSTATKDTYDALHMQALPPR
notes: also called anti-DLL3 CAR with 10A2 scFv, on primary T cells

Transduction efficiency [1]: 42.8% | Transduction efficiency [2]: 36.7%
B3: 5G2 (other)
CAR: QVQLQQSGPGLVKPSQTLSLTCAISGDSVSSNSAVWNWIRQSPSRGLEWLGWTYYRSKYYNDYAVSLKSRITINPDTSKNQFSLQLNSLTPEDTAVYYCTRGGIVGAPDGFDIWGQGTMVTVSSGGGGSGGGGSGGGGSGGGGSQSALTQPPSASGTPGQRVTISCSGSNSNIGSNPINWYQQLPGTAPKLLIYSNNQRPSGVPDRFSGSKSGTSASLAISGLQSEDEADYYCAAWDDSLNGHVFGTGTKVTVLTTTPAPRPPTPAPTIASQPLSLRPEACRPAAGGAVHTRGLDFACDIYIWAPLAGTCGVLLLSLVITKRGRKKLLYIFKQPFMRPVQTTQEEDGCSCRFPEEEEGGCELRVKFSRSADAPAYQQGQNQLYNELNLGRREEYDVLDKRRGRDPEMGGKPRRKNPQEGLYNELQKDKMAEAYSEIGMKGERRRGKGHDGLYQGLSTATKDTYDALHMQALPPR
notes: also called anti-DLL3 CAR with 5G2 scFv, on primary T cells

Transduction efficiency [1]: 65.8% | Transduction efficiency [2]: 57.3%
B4: 3B11 (other)
CAR: QVQLQQSGPGLVKPSQTLSLTCAISGDSVSSNSVVWNWIRQSPSRGLEWLGRTYYRSKWYDDYAVSVKSRITINPDTSKNQFSLQLNSVTPEDTAVYHCARGGIVGAPDAFDIWGQGTMVTVSSGGGGSGGGGSGGGGSGGGGSQSVLTQPPSASGTPGQRVTISCSGSSSNIGSDPVSWYQQFPGTAPKLLIYTNNQRPSGVPDRFSGSKSGTSASLAISGLQSEDEADYYCAAWDDSLNGHVFGTGTKVTVLTTTPAPRPPTPAPTIASQPLSLRPEACRPAAGGAVHTRGLDFACDIYIWAPLAGTCGVLLLSLVITKRGRKKLLYIFKQPFMRPVQTTQEEDGCSCRFPEEEEGGCELRVKFSRSADAPAYQQGQNQLYNELNLGRREEYDVLDKRRGRDPEMGGKPRRKNPQEGLYNELQKDKMAEAYSEIGMKGERRRGKGHDGLYQGLSTATKDTYDALHMQALPPR
notes: also called anti-DLL3 CAR with 3B11 scFv, on primary T cells

From patent publication US20230287120A1 (ALLOGENE THERAPEUTICS, published 2023)
